Test results as given in PMC9352680, “A comprehensive thermodynamic model for RNA binding by the Saccharomyces cerevisiae Pumilio protein PUF4”.
Changes are numbered by the printed parent chain. Numbers in names are those of the source.

T1: PUF4 RNA-binding domain (Saccharomyces cerevisiae, UniProt P25339 537-888)
T1 sequence: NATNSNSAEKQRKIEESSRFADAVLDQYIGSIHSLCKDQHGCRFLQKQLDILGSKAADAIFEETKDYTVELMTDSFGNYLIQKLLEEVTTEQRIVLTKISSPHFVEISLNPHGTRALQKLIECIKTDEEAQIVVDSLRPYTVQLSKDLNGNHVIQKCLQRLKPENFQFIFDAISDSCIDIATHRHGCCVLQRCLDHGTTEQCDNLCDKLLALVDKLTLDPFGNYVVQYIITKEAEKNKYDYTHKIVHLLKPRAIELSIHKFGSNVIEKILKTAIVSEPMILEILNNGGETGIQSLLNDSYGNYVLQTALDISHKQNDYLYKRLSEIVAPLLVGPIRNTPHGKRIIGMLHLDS

B1: Ie_S2_P5E.1_K5.1_C5.1_H5.1_[+2CC]_A5.1_F5.1_T5.1 (ssRNA)
RNA: UUUGAUUAAUAUGAUAUCGUUCUUUCUUGCCUAUUAUUAUUCUUUCUCGAUAUCAUAUUAAUCUUU
B2: Ie_S2_P5E.1_K5.1_C5.1_H5.1_[+2CT]_A5.1_F5.1_T5.1 (ssRNA)
RNA: B1 RNA with C31U
B3: Ie_S2_P5E.1_K5.1_C5.1_H5.1_[+2TT]_A5.1_F5.1_T5.1 (ssRNA)
RNA: B1 RNA with C30U, C31U
B4: Ib_S2_P3E.1_K3.1_C3.1_H3.1_[T1A]_[G2A]_A3.1_F3.1_T3.1 (ssRNA)
RNA: UUUGAUUAAUAUGAUAUCGUUCUUUCUAAUAUAUAUUCUUUCUCGAUAUCAUAUUAAUCUUU
B5: Ib_S2_P3E.1_K3.1_C3.1_H3.1_[T1G]_[A4G]_A3.1_F3.1_T3.1 (ssRNA)
RNA: B4 RNA with A28G, A29G, A31G
B6: Ib_S2_P3E.1_K3.1_C3.1_H3.1_[T1C]_[T3C]_A3.1_F3.1_T3.1 (ssRNA)
RNA: B4 RNA with A28C, A29G, U30C
B7: Ib_S2_P3E.1_K3.1_C3.1_H3.1_[T1G]_[A4C]_A3.1_F3.1_T3.1 (ssRNA)
RNA: B4 RNA with A28G, A29G, A31C
B8: Ib_S2_P3E.1_K3.1_C3.1_H3.1_[G2C]_[T3C]_A3.1_F3.1_T3.1 (ssRNA)
RNA: B4 RNA with A28U, A29C, U30C
B9: Ie_S2_P5E.1_K5.1_C5.1_H5.1_[+1CTCTC]_A5.1_F5.1_T5.1 (ssRNA)
RNA: UUUGAUUAAUAUGAUAUCGUUCUUUCUUCUCUCGUAUUAUUAUUCUUUCUCGAUAUCAUAUUAAUCUUU
B10: Ie_S2_P5E.1_K5.1_C5.1_H5.1_A5.1_[+5TTCCT]_F5.1_T5.1 (ssRNA)
RNA: B9 RNA with C29G, C31A, C33U, G34U, U35C, A36C
B11: Ie_S2_P5E.1_K5.1_C5.1_H5.1_[+2TTCCT]_A5.1_F5.1_T5.1 (ssRNA)
RNA: B9 RNA with C29G, C31U, U32C, G34U
B12: Ie_S2_P5E.1_K5.1_C5.1_H5.1_[+3CCCTT]_A5.1_F5.1_T5.1 (ssRNA)
RNA: B9 RNA with C29G, U32C, G34U
B13: Ie_S2_P5E.1_K5.1_C5.1_H5.1_[+4CTCTC]_A5.1_F5.1_T5.1 (ssRNA)
RNA: B9 RNA with C29G, C31A, U32C, C33U, G34C, A36C
B14: Ie_S2_P5E.1_K5.1_C5.1_H5.1_[+2CTCTC]_A5.1_F5.1_T5.1 (ssRNA)
RNA: B9 RNA with C29G, U30C, C31U, U32C, C33U, G34C
B15: Ie_S2_P5E.1_K5.1_C5.1_H5.1_[+2TCTCT]_A5.1_F5.1_T5.1 (ssRNA)
RNA: B9 RNA with C29G, G34U
B16: Ie_S2_P5E.1_K5.1_C5.1_H5.1_[+4TTCCT]_A5.1_F5.1_T5.1 (ssRNA)
RNA: B9 RNA with C29G, C31A, C33U, G34C, U35C, A36U
B17: Ie_S2_P5E.1_K5.1_C5.1_H5.1_A5.1_[+5CCTCT]_F5.1_T5.1 (ssRNA)
RNA: B9 RNA with C29G, C31A, G34C, A36C
B18: Ie_S2_P5E.1_K5.1_C5.1_H5.1_A5.1_[+5CTCTC]_F5.1_T5.1 (ssRNA)
RNA: B9 RNA with C29G, C31A, G34U, U35C, A36U, U37C
B19: Ie_S2_P5E.1_K5.1_C5.1_H5.1_[+2CCTCT]_A5.1_F5.1_T5.1 (ssRNA)
RNA: B9 RNA with C29G, U30C, G34U
B20: Ie_S2_P5E.1_K5.1_C5.1_H5.1_[+3TTCCT]_A5.1_F5.1_T5.1 (ssRNA)
RNA: B9 RNA with C29G, C31U, G34C
B21: Ie_S2_P5E.1_K5.1_C5.1_H5.1_[+4CCCTT]_A5.1_F5.1_T5.1 (ssRNA)
RNA: B9 RNA with C29G, C31A, U32C, G34C, A36U
B22: Ie_S2_P5E.1_K5.1_C5.1_H5.1_[+1CCTCT]_A5.1_F5.1_T5.1 (ssRNA)
RNA: B9 RNA with U30C, C31U, U32C, C33U
B23: Ie_S2_P5E.1_K5.1_C5.1_H5.1_[+1CCCTT]_A5.1_F5.1_T5.1 (ssRNA)
RNA: B9 RNA with U30C, C33U
B24: Ie_S2_P5E.1_K5.1_C5.1_H5.1_[+4TCTCT]_A5.1_F5.1_T5.1 (ssRNA)
RNA: B9 RNA with C29G, C31A, G34U, U35C, A36U
B25: Ie_S2_P5E.1_K5.1_C5.1_H5.1_[+3CCTCT]_A5.1_F5.1_T5.1 (ssRNA)
RNA: B9 RNA with C29G, U32C, C33U, G34C
B26: Ie_S2_P5E.1_K5.1_C5.1_H5.1_A5.1_[+5TCTCT]_F5.1_T5.1 (ssRNA)
RNA: B9 RNA with C29G, C31A, C33U, G34C, A36C
B27: Ie_S2_P5E.1_K5.1_C5.1_H5.1_A5.1_[+5CCCTT]_F5.1_T5.1 (ssRNA)
RNA: B9 RNA with C29G, C31A, G34C, U35C, A36U
B28: Ie_S2_P5E.1_K5.1_C5.1_H5.1_[+2CTC]_A5.1_F5.1_T5.1 (ssRNA)
RNA: UUUGAUUAAUAUGAUAUCGUUCUUUCUUGCUCUAUUAUUAUUCUUUCUCGAUAUCAUAUUAAUCUUU
B29: Ie_S2_P5E.1_K5.1_C5.1_H5.1_[+2CTT]_A5.1_F5.1_T5.1 (ssRNA)
RNA: B28 RNA with C32U
B30: Ie_S2_P5E.1_K5.1_C5.1_H5.1_[+4CTT]_A5.1_F5.1_T5.1 (ssRNA)
RNA: B28 RNA with C30U, U31A, A34U
B31: Ie_S2_P5E.1_K5.1_C5.1_H5.1_[+2TTC]_A5.1_F5.1_T5.1 (ssRNA)
RNA: B28 RNA with C30U
B32: Ie_S2_P5E.1_K5.1_C5.1_H5.1_[+3CTC]_A5.1_F5.1_T5.1 (ssRNA)
RNA: B28 RNA with C30U, U31C, C32U, U33C
B33: Ie_S2_P5E.1_K5.1_C5.1_H5.1_A5.1_[+6TCT]_F5.1_T5.1 (ssRNA)
RNA: B28 RNA with C30U, U31A, C32U, A34U, U35C
B34: Ie_S2_P5E.1_K5.1_C5.1_H5.1_[+2TCC]_A5.1_F5.1_T5.1 (ssRNA)
RNA: B28 RNA with C30U, U31C
B35: Ie_S2_P5E.1_K5.1_C5.1_H5.1_[+4TTC]_A5.1_F5.1_T5.1 (ssRNA)
RNA: B28 RNA with C30U, U31A, C32U, A34C
B36: Ie_S2_P5E.1_K5.1_C5.1_H5.1_[+4TCC]_A5.1_F5.1_T5.1 (ssRNA)
RNA: B28 RNA with C30U, U31A, C32U, U33C, A34C
B37: Ie_S2_P5E.1_K5.1_C5.1_H5.1_[+3TTT]_A5.1_F5.1_T5.1 (ssRNA)
RNA: B28 RNA with C30U, C32U
B38: Ie_S2_P5E.1_K5.1_C5.1_H5.1_[+3CCC]_A5.1_F5.1_T5.1 (ssRNA)
RNA: B28 RNA with C30U, U31C, U33C
B39: Ie_S2_P5E.1_K5.1_C5.1_H5.1_A5.1_[+5TTT]_F5.1_T5.1 (ssRNA)
RNA: B28 RNA with C30U, U31A, C32U, A34U
B40: Ie_S2_P5E.1_K5.1_C5.1_H5.1_[+3TCC]_A5.1_F5.1_T5.1 (ssRNA)
RNA: B28 RNA with C30U, U33C
B41: Ie_S2_P5E.1_K5.1_C5.1_H5.1_[+3TTC]_A5.1_F5.1_T5.1 (ssRNA)
RNA: B28 RNA with C30U, C32U, U33C
B42: Ie_S2_P5E.1_K5.1_C5.1_H5.1_[+2TCT]_A5.1_F5.1_T5.1 (ssRNA)
RNA: B28 RNA with C30U, U31C, C32U
B43: Ie_S2_P5E.1_K5.1_C5.1_H5.1_[+1TCTC]_A5.1_F5.1_T5.1 (ssRNA)
RNA: UUUGAUUAAUAUGAUAUCGUUCUUUCUUUCUCGUAUUAUUAUUCUUUCUCGAUAUCAUAUUAAUCUUU
B44: Ie_S2_P5E.1_K5.1_C5.1_H5.1_[+1CCCT]_A5.1_F5.1_T5.1 (ssRNA)
RNA: B43 RNA with U29C, U31C, C32U
B45: Ie_S2_P5E.1_K5.1_C5.1_H5.1_[+2TCTC]_A5.1_F5.1_T5.1 (ssRNA)
RNA: B43 RNA with U29G, C30U, U31C, C32U, G33C
B46: Ie_S2_P5E.1_K5.1_C5.1_H5.1_[+2TTCC]_A5.1_F5.1_T5.1 (ssRNA)
RNA: B43 RNA with U29G, C30U, G33C
B47: Ie_S2_P5E.1_K5.1_C5.1_H5.1_[+3TCTC]_A5.1_F5.1_T5.1 (ssRNA)
RNA: B43 RNA with U29G, C30U, G33U, U34C
B48: Ie_S2_P5E.1_K5.1_C5.1_H5.1_[+2CCTC]_A5.1_F5.1_T5.1 (ssRNA)
RNA: B43 RNA with U29G, U31C, C32U, G33C
B49: Ie_S2_P5E.1_K5.1_C5.1_H5.1_[+2CCCT]_A5.1_F5.1_T5.1 (ssRNA)
RNA: B43 RNA with U29G, U31C, G33U
B50: Ie_S2_P5E.1_K5.1_C5.1_H5.1_[+3CCTC]_A5.1_F5.1_T5.1 (ssRNA)
RNA: B43 RNA with U29G, C30U, U31C, G33U, U34C
B51: Ie_S2_P5E.1_K5.1_C5.1_H5.1_[+2T]_A5.1_F5.1_T5.1 (ssRNA)
RNA: UUUGAUUAAUAUGAUAUCGUUCUUUCUUGUUAUUAUUAUUCUUUCUCGAUAUCAUAUUAAUCUUU

Target: T1, PUF4 RNA-binding domain
Test: Mg; RNA-MaP; 20 mM Na-HEPES pH 7.4, 30 mM KOAc, 0.75 mM MgCl2, 0.1% Tween-20, 5% glycerol, 0.1 mg/mL BSA, 2 mM DTT; 25 C; 0.0125-409.6 nM protein
Conditions: tags: N-His6-TEV cleaved; C-SNAP kept, Cy3B-labelled; label: tethered on chip by stalled RNA polymerase

Point of comparison: B45, Kd 34.8 nM. Against it:
- B1 — 20-fold higher, 679 nM
- B2 — 21-fold higher, 725 nM
- B3 — 5.6-fold lower, 6.21 nM
- B4 — 26-fold higher, 889 nM
- B5 — 3.3-fold lower, 10.7 nM
- B6 — higher, > 2300 nM
- B7 — higher, > 2300 nM
- B8 — higher, > 2300 nM
- B9 — 5.9-fold higher, 204 nM
- B10 — 2.6-fold lower, 13.2 nM
- B11 — within 1.5-fold, 27.4 nM
- B12 — 1.6-fold higher, 54.6 nM
- B13 — 4.4-fold lower, 7.93 nM
- B14 — 21-fold higher, 724 nM
- B15 — within 1.5-fold, 39.3 nM
- B16 — 1.9-fold lower, 18.1 nM
- B17 — 2.7-fold lower, 12.8 nM
- B18 — 2.6-fold lower, 13.3 nM
- B19 — higher, > 2300 nM
- B20 — within 1.5-fold, 46.3 nM
- B21 — 5.5-fold lower, 6.38 nM
- B22 — 28-fold lower, 1.23 nM
- B23 — 29-fold lower, 1.2 nM
- B24 — 3.3-fold lower, 10.5 nM
- B25 — within 1.5-fold, 35.3 nM
- B26 — 3.6-fold lower, 9.67 nM
- B27 — 2.1-fold lower, 16.3 nM
- B28 — 14-fold higher, 499 nM
- B29 — 11-fold higher, 368 nM
- B30 — 26-fold lower, 1.36 nM
- B31 — 5-fold lower, 6.91 nM
- B32 — 3.4-fold lower, 10.1 nM
- B33 — 14-fold lower, 2.42 nM
- B34 — 1.6-fold lower, 22.2 nM
- B35 — 12-fold lower, 2.96 nM
- B36 — 13-fold lower, 2.6 nM
- B37 — 3.1-fold lower, 11.3 nM
- B38 — within 1.5-fold, 24.4 nM
- B39 — 22-fold lower, 1.6 nM
- B40 — 3.1-fold lower, 11.4 nM
- B41 — 4.5-fold lower, 7.67 nM
- B42 — 3.1-fold lower, 11.1 nM
- B43 — 7-fold higher, 245 nM
- B44 — 30-fold lower, 1.15 nM
- B46 — within 1.5-fold, 37.6 nM
- B47 — 1.6-fold higher, 56.2 nM
- B48 — 32-fold higher, 1100 nM
- B49 — 34-fold higher, 1170 nM
- B50 — 3.6-fold higher, 127 nM
- B51 — within 1.5-fold, 26 nM
